{"source": "paper doi:10.1101/2024.08.21.608925", "key": {"[1]": {"target": "Multiple peptide resistance factor (MprF) from Pseudomonas aeruginosa, wild type, CPD-His construct after IP6 cleavage (Pseudomonas aeruginosa)", "experiment": "cryo-EM structure"}, "[2]": {"target": "Multiple peptide resistance factor (MprF) from Pseudomonas aeruginosa, wild type, CPD-His construct after IP6 cleavage (Pseudomonas aeruginosa)", "experiment": "cryo-EM structure", "remark": "listed apart in the source"}}, "note": "Where two headings read alike, the source gives them in different places."}
{"substance": "Multiple peptide resistance factor (MprF) from Pseudomonas aeruginosa, wild type, CPD-His construct after IP6 cleavage (enzyme)", "values": [{"measurement": "stoichiometry N", "setting": "[1]", "result": 2}, {"measurement": "stoichiometry N", "setting": "[2]", "result": 2}]}
